± gives the uncertainty stated by the source.
Test: protein stability index of a GFP-peptide fusion (yeast GPS) (PSI 1-4); higher = more stable; sorted into four equal gates, so the index is relative within each strain
Outline: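 Mid-log yeast cultures in leucine-free medium, carrying a pooled plasmid library, were sorted into four equal gates by their GFP/Cherry fluorescence ratio. Each plasmid expressed Cherry along with GFP fused upstream of a tiled 17-residue yeast protein peptide. Plasmids recovered from each gate were PCR-amplified and Illumina-sequenced, with reads assigned to strains by barcodes. The protein stability index was obtained by summing each gate's read frequency weighted by its gate number.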

Row | Sequence | protein stability index (doa10∆) | protein stability index (pdr5∆) | protein stability index (san1∆) | protein stability index (ubr1∆)
1 | GNLYSKVMNNSFKLCTL [YML103C/NUP188] | 3.21 ± 0.21 | 2.8 ± 0.15 | 2.87 ± 0.14 | 3.07 ± 0.22
2 | FTLTYDIIETFSSKRKT [YMR129W/POM152] | 1.88 ± 0.05 | 2.07 ± 0.064 | 1.69 ± 0.077 | 2.33 ± 0.056
3 | VKDKEEDHIFFKYIYEL [YDL116W/NUP84] | 1.34 ± 0.07 | 1.09 ± 0.093 | 1.16 ± 0.16 | 1.06 ± 0.076
4 | FAAILVLLVLPFTDRSV [COB] | 2.88 ± 0.081 | 1.3 ± 0.095 | 1.54 ± 0.15 | 1.13 ± 0.065
5 | LVGRKPAEHPFISAARY [RPC37] | 2.23 ± 0.14 | 1.86 ± 0.074 | 2.08 ± 0.15 | 2.54 ± 0.084
6 | QKSINHPPDFKRMLLSL [SNF2] | 1.66 ± 0.04 | 1.42 ± 0.039 | 1.71 ± 0.062 | 1.38 ± 0.022
7 | VVEKKTVGSSNGGLIHV [RPO21] | 2.97 ± 0.081 | 3.07 ± 0.079 | 2.8 ± 0.053 | 3 ± 0.055
8 | ADVSKLMYSITFHHHGR [SRB2] | 2.82 ± 0.053 | 3.01 ± 0.056 | 2.79 ± 0.049 | 2.98 ± 0.04
9 | LVFQLAKNFSAQKRVVS [SRB8] | 1.69 ± 0.053 | 2.06 ± 0.072 | 1.86 ± 0.076 | 1.94 ± 0.058
10 | YTDFENTFQKTVEPVYQ [FAS1] | 2.15 ± 0.099 | 2.44 ± 0.1 | 2.03 ± 0.15 | 2.73 ± 0.084
11 | ERKSKTYVITKNGKIYL [RET1] | 2.76 ± 0.051 | 2.54 ± 0.057 | 2.5 ± 0.059 | 2.47 ± 0.035
12 | QDMQLKIWSVKDGSNPR [RPN14] | 2.99 ± 0.097 | 2.86 ± 0.088 | 2.45 ± 0.1 | 2.62 ± 0.075
13 | SAILLSETDKRQFLHEL [RPO31] | 2.6 ± 0.069 | 2.49 ± 0.051 | 2.88 ± 0.087 | 2.63 ± 0.052
14 | MASTELSLKRTLTDILE [RPN4] | 1.26 ± 0.18 | 2.65 ± 0.17 | 2.72 ± 0.16 | 2.02 ± 0.29
15 | LKKKYQIILDRFAPDNQ [SIR3] | 1.9 ± 0.09 | 1.85 ± 0.082 | 1.68 ± 0.13 | 1.74 ± 0.062
16 | WSWDIAVDNCAICRNHI [HRT1] |  |  |  | 2.04 ± 0.23
17 | IIDGPKALILAPTRELV [PRP28] | 1.59 ± 0.062 | 2.32 ± 0.053 | 1.89 ± 0.1 | 1.68 ± 0.052
18 | QVIFEIFEISLQRKDYT [YML103C/NUP188] | 2 ± 0.053 | 2.19 ± 0.056 | 2.51 ± 0.069 | 2.84 ± 0.061
19 | EDFQVLRLGRGINPNTF [YDL088C/ASM4] | 3.29 ± 0.11 | 3.45 ± 0.19 | 3.06 ± 0.11 | 3.52 ± 0.064
20 | GSHLSETEFPPFREFLQ [ECM29] | 3.12 ± 0.063 | 3.11 ± 0.071 | 3.09 ± 0.041 | 2.87 ± 0.058
21 | YPPMPFDGFLFGSRVMI [FAS1] | 2.64 ± 0.075 | 2.75 ± 0.071 | 2.53 ± 0.11 | 2.54 ± 0.048
22 | VRDKLDEYQAAVEQRKK [DPB4] | 3.42 ± 0.097 | 3.37 ± 0.066 | 3.31 ± 0.055 | 3.33 ± 0.073
23 | HPYLFEGAEPGPPYTTD [ISW2] | 3.04 ± 0.06 | 3.14 ± 0.066 | 3.07 ± 0.05 | 3.18 ± 0.053
24 | KIRMLTQAAEFLSPYIS [IRR1] | 1.84 ± 0.04 | 2.46 ± 0.047 | 1.74 ± 0.074 | 2.23 ± 0.045
25 | PARSSSLRSNVVVAETS [YAR002W/NUP60] | 2.2 ± 0.04 | 2.62 ± 0.04 | 2.19 ± 0.058 | 2.58 ± 0.035
26 | NGIIMNGTLIGCVSYSP [YMR153W/NUP53] | 1.99 ± 0.066 | 1.95 ± 0.076 | 2.46 ± 0.21 | 2.24 ± 0.083
27 | LGMMYEQKLIDQHVINI [YCS4] | 2.08 ± 0.061 | 2.28 ± 0.051 | 2.21 ± 0.064 | 2.08 ± 0.05

Row | Sequence | protein stability index (doa10∆) | protein stability index (pdr5∆) | protein stability index (san1∆) | protein stability index (ubr1∆)
28 | GKSTADVKSSDSLKLNS [YJL041W/NSP1] | 3.23 ± 0.14 | 3.35 ± 0.12 | 2.96 ± 0.17 | 3.32 ± 0.14
29 | LNDENSDDYDNEGAASS [SMC1] | 3.39 ± 0.25 |  |  | 
30 | VRIIKHTLDIINVLTDQ [RPS5] | 2.11 ± 0.053 | 2.46 ± 0.059 | 2.62 ± 0.053 | 2.4 ± 0.044
31 | VFDTAITSWYENHNKGK [QCR9] | 2.49 ± 0.16 | 2.96 ± 0.12 | 2.65 ± 0.1 | 2.15 ± 0.073
32 | GVPNYLVQLEPHLFVNG [SSN2] | 1.96 ± 0.069 | 1.97 ± 0.063 | 1.94 ± 0.084 | 1.96 ± 0.12
33 | HVRKVKLLKQPKFDVGA [RPS1A] | 2.21 ± 0.062 | 2.5 ± 0.085 | 2.28 ± 0.073 | 2.2 ± 0.067
34 | PKPLKFLRPTYPDLCSI [RPN1] | 2.61 ± 0.07 | 2.69 ± 0.067 | 2.4 ± 0.06 | 2.5 ± 0.042
35 | SKKVLECLPAEGHDWKA [DIS3] | 1.65 ± 0.13 | 1.69 ± 0.13 | 1.47 ± 0.1 | 1.55 ± 0.07
36 | KICSSEMINEQKLPQYI [RGR1] | 3.02 ± 0.11 | 2.9 ± 0.13 | 3.01 ± 0.15 | 2.98 ± 0.1
37 | SRNNTLNVTPSKRPQLG [SIR4] | 2.96 ± 0.1 | 2.97 ± 0.093 | 2.8 ± 0.096 | 2.85 ± 0.073
38 | LILILVISFGQPKLNPM [SWI1] | 1.68 ± 0.054 | 1.61 ± 0.042 | 1.78 ± 0.092 | 2.09 ± 0.04
39 | SEIIDTNTSKQFQKARN [SRB8] | 2.71 ± 0.12 | 3.01 ± 0.063 | 3.16 ± 0.056 | 2.92 ± 0.095
40 | QTHPDTGISQKSMSILN [HTB1] | 3.04 ± 0.056 | 3.01 ± 0.069 | 3.11 ± 0.06 | 2.72 ± 0.068
41 | HLLPRNEWIKAQEDVPY [QCR7] | 2.31 ± 0.072 | 1.68 ± 0.086 | 2.17 ± 0.089 | 1.88 ± 0.046
42 | PQRCTFAFEAIDPRHLA [POP1] | 2.55 ± 0.095 | 3.01 ± 0.077 | 2.73 ± 0.087 | 3.1 ± 0.051
43 | TVRASSLQDLIYKRGQA [SMC2] | 2.12 ± 0.073 | 3 ± 0.088 | 2.62 ± 0.08 | 2.51 ± 0.036
44 | FKSALANLEDIIFEIEK [RRP6] | 3.21 ± 0.13 | 3.13 ± 0.096 | 3.2 ± 0.071 | 2.83 ± 0.12
45 | LDEDDVNADDDDFMHSE [RPB4] | 2.94 ± 0.096 | 2.82 ± 0.088 | 2.53 ± 0.12 | 3.07 ± 0.09
46 | LSSVALRSDFYILANHY [YJL039C/NUP192] | 2.06 ± 0.15 | 2.28 ± 0.13 | 1.59 ± 0.24 | 2 ± 0.098
47 | EIAFHLTLIFYDVLHDV [YML103C/NUP188] | 1.26 ± 0.072 | 1.47 ± 0.055 | 1.63 ± 0.17 | 1.99 ± 0.086
48 | LIQKGYLQRGDDGESYA [CDC53] | 3.68 ± 0.15 | 2.68 ± 0.1 | 3.34 ± 0.065 | 3.12 ± 0.066
49 | KEKESKKDSKPAFSFGI [YLR335W/NUP2] | 2.96 ± 0.077 | 3.01 ± 0.068 | 3.19 ± 0.058 | 3.23 ± 0.059
50 | LIELKSDLLVAPPLENE [YML103C/NUP188] | 2.41 ± 0.046 | 2.18 ± 0.052 | 2.31 ± 0.077 | 2.19 ± 0.05
51 | EVFSVLGIEAARYSIIR [RPO31] | 1.72 ± 0.13 | 1.63 ± 0.11 | 1.43 ± 0.25 | 1.59 ± 0.14
52 | LNRLPAASLGDMVMATV [RPL23A] | 1.6 ± 0.1 | 1.78 ± 0.072 | 2.52 ± 0.17 | 2.11 ± 0.057
53 | PIVEDRRVKQLDDITDS [SIR4] |  | 1.49 ± 0.19 | 1.31 ± 0.21 | 1.64 ± 0.12
54 | PAFSFGTKSNEKKDSGS [YJL041W/NSP1] | 3.17 ± 0.075 | 3.46 ± 0.075 | 3.44 ± 0.044 | 3.25 ± 0.065
